Here are results for 3 substances from patent publication US20210132065A1, “MAMMALIAN MHC PEPTIDE DISPLAY AS AN EPITOPE SELECTION TOOL FOR VACCINE DESIGN” (ETH Zürich, priority 2018, published 2021).

Entries after “also recorded” stand apart in the source; their conditions may differ. Read-outs that look alike come from different tables or passages of the source. Where no end group is shown, it is not given here.

Test [1] has as its target HLA-DRB1_15 (Homo sapiens, UniProt P01903+P01911). The format is cell-based. As to conditions: for MCR surface expression: peptide covalently linked to beta chain, anti-HLA-DR APC antibody, FACS.
For test [2], the target named is HLA-DRB5_1 (Homo sapiens, UniProt P01903+Q30154). The format is cell-based. As to conditions: for MCR surface expression: peptide covalently linked to beta chain, anti-HLA-DR APC antibody, FACS.
Where [3] appears, read: FIG. 6, anti-CD3e or anti-HLA-DR PE antibodies, peptides containing the core epitope with different flanking regions.

HLA-DRB1_15, sequence (P01911 30-227 limits assumed): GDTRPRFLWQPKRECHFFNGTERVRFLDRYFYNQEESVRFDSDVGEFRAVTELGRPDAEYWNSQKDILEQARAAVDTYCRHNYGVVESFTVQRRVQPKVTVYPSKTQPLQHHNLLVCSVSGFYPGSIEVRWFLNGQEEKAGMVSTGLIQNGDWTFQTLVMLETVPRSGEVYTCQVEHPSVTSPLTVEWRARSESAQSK
HLA-DRB1_15, sequence (P01903 26-216 limits assumed): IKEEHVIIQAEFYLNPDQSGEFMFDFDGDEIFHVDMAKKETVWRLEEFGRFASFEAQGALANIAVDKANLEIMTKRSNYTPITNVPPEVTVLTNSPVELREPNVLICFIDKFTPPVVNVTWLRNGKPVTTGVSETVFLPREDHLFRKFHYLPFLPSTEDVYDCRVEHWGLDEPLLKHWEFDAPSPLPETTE
HLA-DRB5_1, sequence (Q30154 30-227 limits assumed): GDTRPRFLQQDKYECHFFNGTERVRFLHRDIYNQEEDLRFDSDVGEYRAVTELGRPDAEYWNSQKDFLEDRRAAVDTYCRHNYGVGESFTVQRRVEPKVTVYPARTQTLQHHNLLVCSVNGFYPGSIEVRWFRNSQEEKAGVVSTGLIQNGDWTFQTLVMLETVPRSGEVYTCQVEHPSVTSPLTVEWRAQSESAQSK
HLA-DRB5_1, sequence (P01903 26-216 limits assumed): as the sequence (P01903 26-216 limits assumed) above

“MP162-72: influenza Matrix Protein 1-derived peptide comprising amino acids 62-72, covalently linked to the HLA beta chain of the MCR (FVFTLTVPSER; also: covalently linked to HLA beta chain of the MCR; UniProt P03485 62-72, looked up, fragment)”: the MCR surface expression result in test [1] is recorded as “not the other HLAs tested”; in test [2], “efficient expression”.

“MP1103-120: influenza Matrix Protein 1 peptide, amino acids 103-120, covalently linked to the HLA beta chain of the MCR (LKREITFHGAKEISLSYS; also: covalently linked to HLA beta chain of the MCR; UniProt P03485 103-120, looked up, fragment)”: the MCR surface expression entry in test [1] was “detectable at very low levels; also recorded: very low MCR expression”; in test [1] (listed as MP1103-121), “low surface expression”; in test [2], “barely detected; also recorded: not expressed at all”; in test [2] (listed as MP1103-121), “not to bind at all”.

For “MP1107-117: core epitope of influenza Matrix Protein 1, amino acids 107-117, tested within peptides with different flanking regions (ITFHGAKEISL; UniProt P03485 107-117, looked up, fragment)”, the “presentation (MCR surface expression)” value is recorded as “not by HLA-DRB1_15” in test [1] (setting [3]) and “nor HLA-DRB5_1” in test [2] (setting [3]).
